Test results: article PMC11100904, “How short peptides can disassemble ultra-stable tau fibrils extracted from Alzheimer’s disease brain by a strain-relief mechanism” (Research Square, 2024)

Molecular target: T1, 15N,13C-labeled tau K18+ (residues Gln244-Glu380 of 4R tau) (UniProt P10636-8 244-380)
T1 construct: Uniformly 15N,13C isotope-labelled for NMR; purified as the unlabeled protein; also called tau K18+ monomer; tau monomers; source: E. coli BL21-Gold, M9 medium with 15NH4Cl and 13C-glucose, purified (boiling, HiTrap SP HP ion exchange, Superdex 75)
T1 sequence (P10636 561-697): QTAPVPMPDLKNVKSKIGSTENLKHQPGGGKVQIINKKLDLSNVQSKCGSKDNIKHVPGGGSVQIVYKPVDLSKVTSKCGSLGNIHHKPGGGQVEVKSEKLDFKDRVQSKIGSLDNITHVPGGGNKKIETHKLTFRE
Assay: NMR titration; 1H-15N HSQC, 0.1 mM 15N,13C-labeled tau K18+ in 100 mM KCl, 20 mM NaH2PO4, 1 mM TCEP, 5%/95% D2O/H2O, pH 7.0, without or with 1 mM peptide (10-fold molar excess), 25 °C; chemical shift perturbation; one concentration, changes seen over time (2.5 months at 4 °C for D-TLKIVWI)
Conditions: both partners purified

B1: L-TLKIVWI (peptide)
peptide: TLKIVWI
notes: L-enantiomer of the designed peptide D-TLKIVWI; All L-amino acids; also called L-TLKIVWX (X = I); source: synthetic peptide (GenScript, purified to ≥98%)
binding result: binds
